Experimental data reported in patent US6673571B2, “Polypeptides having aminopeptidase activity and nucleic acids encoding same” (Novozymes Biotech, Inc., priority 1997, dated 2004).

Assays:
[1] = tested on: soy protein; test: Degree of hydrolysis (DH) in soy protein hydrolysis, OPA method; type: biochemical, soy bean; conditions: for DH: 50° C., 18 hours
Experimental: The degree of hydrolysis (DH) of the soy protein was determined as follows. The DH, defined as described in by Adler-Nissen (1986, Enzymic Hydrolysis of Food Proteins, Elsevier Applied Science Publishers), was determined by reaction of the supernatant with OPA (ortho-phthaldialdehyde, Sigma Chemical Co., St. Louis, Mo.) essentially as described by Church et al., 1983, Journal of Dairy Science 66: 1219-1227 with correction factors as determined by Adler-Nissen, 1979, Agricultural and Food Chemistry 27: 1256-1262.
The aminopeptidase I was added in increasing dosage to either a low-background (1.5% of the substrate protein) or a high background (6% of the substrate protein) of FLAVOURZYME 1000L™ and a dosage of ALCALASE 2.4L® of 1.5% of the substrate protein. The experiments were carried out as described below:
Hydrolysis was carried out on a 10 ml scale at 50° C. for 18 hours. The initial pH was 7 with no pH readjustment during hydrolysis. Inactivation of the enzyme was carried out at 85° C. for 3 minutes in a water bath. The substrate concentration was 2% protein from soy bean meal. The substrate was heat treated in a water bath at 85° C. for 3 minutes. The enzymes used with FLAVOURZYME 1000L™ and ALCALASE 2.4L® described above were crude Sphingomonas capsulata aminopeptidase I powder (see Example 1) and the purified Sphingomonas capsulata aminopeptidase I described in Example 4.

[2] = pH optimum / pH profile with Ala-pNA; type: biochemical; conditions: room temperature
Experimental: The pH optimum for the 67 kDa aminopeptidase I was determined using the following protocol. The buffer solutions at different pH's were prepared by adding distilled water to 4.25 g of sodium acetate and 3.78 g of Tris (free base) to a final volume of 250 ml and adjusting the pH to 8.5, 8.0, 7.5, 7.0, 6.5, 5.80, 5.5, and 5.0 with 36.5-38% HCl. Aliquots of 10 ml were removed at each pH. A 20 μl volume of a 100 mg/ml solution of Ala-pNA in DMSO was added to 980 μl of each buffer solution. The pH was then determined to be 8.5, 8.0, 7.57, 7.30, 7.09, 6.68, 6.14, and 5.25 for the buffer solutions after the addition of the substrate. Another solution of substrate at a concentration of 2 mg/ml was prepared at the various pHs. The reaction was initiated by the addition of 10 μl of enzyme solution, diluted 5-fold in 10 mM Tris-HCl pH 7.5, to 200 μl of substrate at the various pHs at room temperature and monitored at 405 nm.
There was no detectable autohydrolysis of Ala-pNa in the pH range 5.25-8.5.

[3] = Specific activity in alanyl-aminopeptidase units (AAU); type: biochemical; conditions: Ala-pNa, pH 7.5, 22° C.
Experimental: The aminopeptidase I dosages used were based on alanyl-aminopeptidase units (AAU) determined by the hydrolysis of Ala-pNa at pH 7.5. One AAU unit of the aminopeptidase I is defined as the quantity of an enzyme which hydrolyses 1.0 micromole of Ala-pNa per minute in a 9.1 mM solution of Ala-pNa at pH 7.5, 22° C., and ionic strength=0.05.
The specific activity of the purified aminopeptidase I was approximately 12 AAU/mg enzyme. Therefore, a dosage of 0.24 AAU per 200 mg soy protein, for example, corresponded to 0.1 g enzyme per kg soy protein.

[4] = tested on: gelatin; test: Degree of hydrolysis (DH) in gelatin hydrolysis, OPA method; type: biochemical; conditions: 50° C., 18 hours
Experimental: The aminopeptidase I was added in increased dosage to either a low or a high background of FLAVOURZYME™ and ALCALASE® as performed in Example 7.
Hydrolysis was carried out in 200 μl reactions in Eppendorf tubes. The substrate gelatin (Merck) was dissolved in distilled water at 85° C. for 5 minutes. After cooling to 50° C., the pH was adjusted to 6.5. The final gelatin concentration was adjusted to 2% after the addition of enzymes. The substrate concentration in each reaction was calculated to be 4 mg.
The hydrolysis reactions were performed at 50° C. for 18 hours. Enzymes were inactivated at 85° C. for 5 minutes followed by centrifugation. DH was calculated on the basis of the total protein content of hydrolysate using the OPA method.

[5] = Isoelectric point by activity staining method; type: physicochemical; conditions: freshly prepared enzyme
Source text: The isoelectric point of the aminopeptidase is variable since the isoelectric point of the freshly prepared enzyme is estimated as 8.4 using an activity staining method, however, the isoelectric point varies from 7.4 to 8.5 during the course of purification and/or storage. The uncertainty of the isoelectric point may be due to the self digestion of the aminopeptidase from its amino terminal.

[6] = Substrate specificity: initial rates of hydrolysis of para-nitroanilides; type: biochemical; conditions: Gly-Phe-pNA versus Ala-Ala-pNA

B1: Sphingomonas capsulata aminopeptidase I: purified aminopeptidase of 67 kDa from Sphingomonas capsulata IFO 12533; deduced amino acid sequence SEQ ID NO:2 (protein)
chain: MRKTPQGIGLLSALSTSTLALATLILAQPALAQVQPASNSRPMAVPIAHGVPDAQDVPYPGTIGLQIDATDLATGAFRVVETVPVAADAKELILQLPAWLPGEHGNRGPVAELAGITFEAKGQKLAWTRDPVEVNAFHIPLPAGTSEVVARFIHTSPLRDSEGRITVTREMLNVQWEKMSLYPAGHYVRQIKVRPTVSFPQGWTVFTALDGKTQSGAGNTVTWAETDYETLVDSPIFAGLYAARHDLGHNVYFDLVADKPELLAIKPENLAAYRNLADEAVGAFGARHFDHYDFLLALTDRMGSIGLEHHRSSENQQEPKSLTDWAAYDWDRNVIAHEFSHSWDGKYRRSAKLWTPDYRQPMQDNLLWVYEGQTQFWGLVLAARSGVQSKDVVLGSLANYAGTFTQTAGRDWRSVEDTTMDPIFAARKPKPYSSLTRNEDYYTEGALVWLEADQIIRDGTGGKKGLDDFAKAFFGVRDGDWGVLTYEFDDVVKTLNGVYPYDWATFLKTRLQTPGQPVPLGGIERGGYKLEFKDEPNPYDKARMADAKVLSLFNSLGVTLDKDGKVTASRWDGPAFKAGLVSGMQVMAVNGDAYDADKLKGAITNAKTGNPGAGRPIELLVKRDDRFVTLPITYADGLRWPWLVRTAPGTAPTGLDKLLAPHASKLPVGKAAK
In the case of B1, the “% Relative increase in DH” value ([1]; 1.5% FLAVOURZYME +67 kDa AP) is reported as 34.8%, the “% Relative increase in DH” value ([1]; 1.5% FLAVOURZYME +67 kDa AP versus 6.0% FLAVOURZYME) is reported as −2.2% and the “% Relative increase in DH” value ([1]; 6.0% FLAVOURZYME +67 kDa AP) is reported as 14.2%. The DH ([1]; added to high dosage (6%) FLAVOURZYME + 1.5% ALCALASE, from DH 61%) was 71%, the DH ([1]; added to low dosage (1.5%) FLAVOURZYME + 1.5% ALCALASE, from DH 44%) was 61-62% and the “share of the DH increasing effect of the crude enzyme” value ([1]; high dosage of FLAVOURZYME, (71−61)/(77−61)×100%) was 63%. The “share of the DH increasing effect of the crude enzyme” value ([1]; low dosage of FLAVOURZYME, (62−44)/(72−44)×100%) was 64%, the “effect of adding aminopeptidase I as % of the effect of the crude enzyme” value ([1]; relative to 1.5% + 0.5% extra FLAVOURZYME, (62−48)/(72−48)×100%) was 58% and the “effect of aminopeptidase I as % of the effect of the crude enzyme” value ([1]; relative to 6% + 1% extra FLAVOURZYME, (71−63)/(77−63)×100%) was 57%. For the same molecule, the “Relative activity (%)” value ([2]; pH 5.25, Ala-pNA) was 24.9%, the “Relative activity (%)” value ([2]; pH 6.14, Ala-pNA) was 56.4% and the “Relative activity (%)” value ([2]; pH 6.68, Ala-pNA) was 78.4%. The “Relative activity (%)” value ([2]; pH 7.09, Ala-pNA) was 99.4%, the “Relative activity (%)” value ([2]; pH 7.30, Ala-pNA) was 100% and the “Relative activity (%)” value ([2]; pH 7.57, Ala-pNA) was 92.8%. For the same molecule, the “Relative activity (%)” value ([2]; pH 8.0, Ala-pNA) was 61%, the “Relative activity (%)” value ([2]; pH 8.49, Ala-pNA) was 24.2% and the specific activity [3] was “approximately 12 AAU/mg enzyme”. The DH ([4]; 0.2 U/4 mg gelatin added to low FLAVOURZYME background (2%) + 1% ALCALASE, from DH 38%) was 61%, the DH ([4]; added to 7% FLAVOURZYME + 1% ALCALASE) was 61% and the isoelectric point [5] was roughly 8.4. For the same molecule, the “hydrolysis of dipeptide substrates” value [6] was “hydrolysed Gly-Phe-pNA more quickly than Ala-Ala-pNA”.
